US20090175974A1

Target: TmCad1(EC12-cyto), partial Tenebrio molitor cadherin from extracellular domain 12 through the end of the cytoplasmic domain, expressed on insect cells (Tenebrio molitor)
Assay: cell-based or functional assay

Cry3Aa protoxin purified from sporulated cultures of Bacillus thuringiensis var. tenebrionis (from UniProt P0A379 1-644)
cytotoxicity (propidium iodide staining of GFP-positive transfected Hi5 cells, flow cytometry): 25%
cytotoxicity (propidium iodide staining of GFP-positive transfected S2 cells, flow cytometry): 40%
